The text below walks through data of patent publication US20250340857A1 (SEISMIC THERAPEUTIC, published 2025).

The target of the assay is Human IgE antibody (human). The experiment in a line: cell-based or functional assay.

B1: FP167 (Fc fusion)
chain 1: DKTHTCPPCPAPEAAGAPSVFLFPPKPKDTLMISRTPEVTCVVVDVSHEDPEVKFNWYVDGVEVHNAKTKPREEQQNSTYRVVSVLTVLHQDWLNGKEYKCKVSNKALKAPIEKTISKAKGQPREPQVYTLPPSRDELTKNQVSLWCLVKGFYPSDIAVEWESNGQPENNYKTTPPVLDSDGSFFLYSKLTVDKSRWQQGNVFSCSVMHEALHNHYTQKSLSLSPGGSSAPGSSAPGSSAPTALGRRKAEDRIKETLWADGVKIDEKDFEHIKSSHEDYFAVEYGKGSGYYDVNKKMDSEDTALCVGAVVTNMFHWWVDQNRENIEKFKKQDPENNGVMKFEGVKEATVDELNEFYRDNRDNYADQSRFFDLIKKHFGNKALNPEELFELYFNGFYYGSSHRYIEDNEPAQNNLFSKVLENNKLLNPERSYGIDGFSNNVINALKSHKVLGLVYTTPLRYRHIISMWGADIDQDGKVKAIYVTDSDDREITFNDNSKRRIGMIRYDVLVDDNGNIRFTGKGATHKEEGAIYAGLYSLSRGDEVWEDYFKKYPEVQENL
chain 2: DKTHTCPPCPAPEAAGAPSVFLFPPKPKDTLMISRTPEVTCVVVDVSHEDPEVKFNWYVDGVEVHNAKTKPREEQQNSTYRVVSVLTVLHQDWLNGKEYKCKVSNKALKAPIEKTISKAKGQPREPQVYTLPPSRDELTKNQVSLSCAVKGFYPSDIAVEWESNGQPENNYKTTPPVLDSDGSFFLVSKLTVDKSRWQQGNVFSCSVMHEALHNHYTQKSLSLSPG
Regarding B1, the “EC50 MSD IgE” value is 0.721 nM.

B2: FP168 (Fc fusion)
chain 1: DKTHTCPPCPAPEAAGAPSVFLFPPKPKDTLMISRTPEVTCVVVDVSHEDPEVKFNWYVDGVEVHNAKTKPREEQQNSTYRVVSVLTVLHQDWLNGKEYKCKVSNKALKAPIEKTISKAKGQPREPQVYTLPPSRDELTKNQVSLWCLVKGFYPSDIAVEWESNGQPENNYKTTPPVLDSDGSFFLYSKLTVDKSRWQQGNVFSCSVLHEALHSHYTQKSLSLSPGGSSAPGSSAPGSSAPTALGRRKAEDRIKETLWADGVKIDEKDFEHIKSSHEDYFAVEYGKGSGYYDVNKKMDSEDTALCVGAVVTNMFHWWVDQNRENIEKFKKQDPENNGVMKFEGVKEATVDELNEFYRDNRDNYADQSRFFDLIKKHFGNKALNPEELFELYFNGFYYGSSHRYIEDNEPAQNNLFSKVLENNKLLNPERSYGIDGFSNNVINALKSHKVLGLVYTTPLRYRHIISMWGADIDQDGKVKAIYVTDSDDREITFNDNSKRRIGMIRYDVLVDDNGNIRFTGKGATHKEEGAIYAGLYSLSRGDEVWEDYFKKYPEVQENL
chain 2: DKTHTCPPCPAPEAAGAPSVFLFPPKPKDTLMISRTPEVTCVVVDVSHEDPEVKFNWYVDGVEVHNAKTKPREEQQNSTYRVVSVLTVLHQDWLNGKEYKCKVSNKALKAPIEKTISKAKGQPREPQVYTLPPSRDELTKNQVSLSCAVKGFYPSDIAVEWESNGQPENNYKTTPPVLDSDGSFFLVSKLTVDKSRWQQGNVFSCSVLHEALHSHYTQKSLSLSPG
Consider B2, for which the “EC50 CE-SDS IgE” value was determined as 17.6 nM and the “EC50 MSD IgE” value was 0.637 nM.

B3: FP160 (Fc fusion)
chain: DKTHTCPPCPAPEAAGAPSVFLFPPKPKDTLMISRTPEVTCVVVDVSHEDPEVKFNWYVDGVEVHNAKTKPREEQQNSTYRVVSVLTVLHQDWLNGKEYKCKVSNKALKAPIEKTISKAKGQPREPQVYTLPPSRDELTKNQVSLTCLVKGFYPSDIAVEWESNGQPENNYKTTPPVLDSDGSFFLYSKLTVDKSRWQQGNVFSCSVMHEALHNHYTQKSLSLSPGGGGSGGGGSGGGGSTALGRRKAEDRIKETLWADGVKIDEKDFEHIKSSHEDYFAVEYGKGSGYYDVNKKMDSEDTALCVGAVVTNMFHWWVDQNRENIEKFKKQDPENNGVMKFEGVKEATVDELNEFYRDNRDNYADQSRFFDLIKKHFGNKALNPEELFELYFNGFYYGSSHRYIEDNEPAQNNLFSKVLENNKLLNPERSYGRDGFSNNVINALKSHKVLGLVYTTPLRYRHIISMWGADIDQDGKVKAIYVTDSDDREITFNDNSKRRIGMIRYDVLVDKNGNIRFTGKGATHKNEGAIYAGLYSLSRGDKVWKDYFKKYPEVQENL
For the molecule B3, the “EC50 CE-SDS IgE” value was 4.04 nM.

B4: FP163 (Fc fusion)
chain: DKTHTCPPCPAPEAAGAPSVFLFPPKPKDTLMISRTPEVTCVVVDVSHEDPEVKFNWYVDGVEVHNAKTKPREEQQNSTYRVVSVLTVLHQDWLNGKEYKCKVSNKALKAPIEKTISKAKGQPREPQVYTLPPSRDELTKNQVSLTCLVKGFYPSDIAVEWESNGQPENNYKTTPPVLDSDGSFFLYSKLTVDKSRWQQGNVFSCSVMHEALHNHYTQKSLSLSPGGGGSGGGGSGGGGSTALGRRKAEDRIKETLWADGVKIDEKDFEHIKSSHEDYFAVEYGKGSGYYDVNKKMDSEDTALCVGAVVTNMFHWWVDQNRENIEKFKKQDPENNGVMKFEGVKEATVDELNEFYRDNRDNYADQSRFFDLIKKHFGNKALNPEELFELYFNGFYYGSSHRYIEDNEPAQNNLFSKVLENNKLLNPERSYGIDGFSNNVINALKSHKVLGLVYTTPLRYRHIISMWGADIDQDGKVKAIYVTDSDDREITFNDNSKRRIGMIRYDVLVDDEGNIRFTGKGATHKEEGAIYAGLYSLSRGDEVWEDYFKKYPEVQENL
For B4, the “EC50 CE-SDS IgE” value was 30.5 nM.

B5: FP165 (Fc fusion)
chain 1: DKTHTCPPCPAPEAAGAPSVFLFPPKPKDTLMISRTPEVTCVVVDVSHEDPEVKFNWYVDGVEVHNAKTKPREEQQNSTYRVVSVLTVLHQDWLNGKEYKCKVSNKALKAPIEKTISKAKGQPREPQVYTLPPSRDELTKNQVSLWCLVKGFYPSDIAVEWESNGQPENNYKTTPPVLDSDGSFFLYSKLTVDKSRWQQGNVFSCSVLHEALHSHYTQKSLSLSPGGGGSGGGGSGGGGSTALGRRKAEDRIKETLWADGVKIDEKDFEHIKSSHEDYFAVEYGKGSGYYDVNKKMDSEDTALCVGAVVTNMFHWWVDQNRENIEKFKKQDPENNGVMKFEGVKEATVDELNEFYRDNRDNYADQSRFFDLIKKHFGNKALNPEELFELYFNGFYYGSSHRYIEDNEPAQNNLFSKVLENNKLLNPERSYGIDGFSNNVINALKSHKVLGLVYTTPLRYRHIISMWGADIDQDGKVKAIYVTDSDDREITFNDNSKRRIGMIRYDVLVDDNGNIRFTGKGATHKEEGAIYAGLYSLSRGDEVWEDYFKKYPEVQENL
chain 2: DKTHTCPPCPAPEAAGAPSVFLFPPKPKDTLMISRTPEVTCVVVDVSHEDPEVKFNWYVDGVEVHNAKTKPREEQQNSTYRVVSVLTVLHQDWLNGKEYKCKVSNKALKAPIEKTISKAKGQPREPQVYTLPPSRDELTKNQVSLSCAVKGFYPSDIAVEWESNGQPENNYKTTPPVLDSDGSFFLVSKLTVDKSRWQQGNVFSCSVLHEALHSHYTQKSLSLSPG
With B5, the “EC50 CE-SDS IgE” value worked out at 29.3 nM and the “EC50 MSD IgE” value amounted to 0.822 nM.

B6: FP164 (Fc fusion)
chain: DKTHTCPPCPAPEAAGAPSVFLFPPKPKDTLMISRTPEVTCVVVDVSHEDPEVKFNWYVDGVEVHNAKTKPREEQQNSTYRVVSVLTVLHQDWLNGKEYKCKVSNKALKAPIEKTISKAKGQPREPQVYTLPPSRDELTKNQVSLTCLVKGFYPSDIAVEWESNGQPENNYKTTPPVLDSDGSFFLYSKLTVDKSRWQQGNVFSCSVMHEALHNHYTQKSLSLSPGGGGSGGGGSGGGGSTALGRRKAEDRIKETLWADGVKIDEKDFEHIKSSHEDYFAVEYGKGSGYYDVNKKMDSEDTALCVGAVVTNMFHWWVDQNRENIEKFKKQDPENNGVMKFEGVKEATVDELNEFYRDNRDNYADQSRFFDLIKKDFGNKALNPEELFELYFNGFYYGSSHRYIEDNEPAQNNLFSKVLENNKLLNPERSYGIDGFSNNVINALKSHKVLGLVYTTPLRYRHIISMWGADIDQDGKVKAIYVTDSDDREITFNDNSKRRIGMIRYDVLVDDNGNIRFTGKGATHKEEGAIYAGLYSLSRGDEVWEDYFKKYPEVQENL
On to B6, for which the “EC50 CE-SDS IgE” value is 17.4 nM.
